Test results taken from patent publication US20240400671A1 (published 2024).
Blank lines part the entries; values can stand above or below the binder they belong to.

Legend:
ABM126 = assay: binding affinity
ABM126.4 = assay: binding affinity
ABM109.2 = assay: binding affinity
hABM125.10 = assay: SPR
hABM125.9 = assay: SPR
ABM 109.2 = assay: SPR
ABM 109 = assay: SPR
Cyno Monkey (HEK) = assay: binding affinity
Mouse (NSO) = assay: binding affinity
[1] = target: T1, recombinant human IL-25 (R&D Systems) (human, UniProt Q9H293 33-177); assay: binding affinity
T1 chain: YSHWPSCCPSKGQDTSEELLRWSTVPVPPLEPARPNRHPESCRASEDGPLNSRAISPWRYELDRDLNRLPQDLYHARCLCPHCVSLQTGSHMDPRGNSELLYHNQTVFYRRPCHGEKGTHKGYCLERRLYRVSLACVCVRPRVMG

mouse IL-25 (NS0) = assay: SPR
[2] = target: T1, recombinant human IL-25 (R&D Systems); assay: SPR

B1: Human (HEK) (ligand)
chain: YSHWPSCCPSKGQDTSEELLRWSTVPVPPLEPARPNRHPESCRASEDGPLNSRAISPWRYELDRDLNRLPQDLYHARCLCPHCVSLQTGSHMDPRGNSELLYHNQTVFYRRPCHGEKGTHKGYCLERRLYRVSLACVCVRPRVMG
Kd (ABM126): 0.043 nM
Kd (ABM126.4): 0.024 nM
Kd (ABM109.2): 1 nM

B2: human IL-25 (HEK) (ligand)
chain: YSHWPSCCPSKGQDTSEELLRWSTVPVPPLEPARPNRHPESCRASEDGPLNSRAISPWRYELDRDLNRLPQDLYHARCLCPHCVSLQTGSHMDPRGNSELLYHNQTVFYRRPCHGEKGTHKGYCLERRLYRVSLACVCVRPRVMG
Kd (hABM125.10): 0.374 nM
Kd (hABM125.9): 0.061 nM

B4: ABM125.38 (antibody, V domains shown)
VH: QVTLKESGPTLVKPTQTLTLTCTFSGFSLSTSGMGVGWIRQPPGKALEWLAHIWWDDVKRYNPSLKSRLTITKDTSGSQVVLTMTNMDPVDTATYYCARTLPHFHDYWGQGTTLTVSS
VL: DIQMTQSPSTLSASVGDRVTITCRASSSVSYMYWYQQKPGKAPKPLIYRTSNLASGVPSRFSGSGSGTEYTLTISSLQPDDFATYYCKQYHSYPPTWTFGGGTKVEIKR
Kd (Cyno Monkey (HEK)): 0.235 nM
Kd (Mouse (NSO)): 0.096 nM

B5: LNR125.38 (antibody, V domains shown)
VH: QVTLKESGPTLVKPTQTLTLTCTFSGFSLSTSGMGVGWIRQPPGKALEWLAHIWWDDVKRYNPSLKSRLTITKDTSGSQVVLTMTNMDPVDTATYYCARTLPHFHDYWGQGTTLTVSS
VL: DIQMTQSPSTLSASVGDRVTITCRASSSVSYMYWYQQKPGKAPKPLIYRTSNLASGVPSRFSGSGSGTEYTLTISSLQPDDFATYYCKQYHSYPPTWTFGGGTKVEIKR
Kd [1]: 0.051 nM

Now from value to binder:

Kd (ABM 109.2): 0.024 nM
Kd (ABM 109): 0.004 nM
B3: human IL-25 (ligand)
chain: YSHWPSCCPSKGQDTSEELLRWSTVPVPPLEPARPNRHPESCRASEDGPLNSRAISPWRYELDRDLNRLPQDLYHARCLCPHCVSLQTGSHMDPRGNSELLYHNQTVFYRRPCHGEKGTHKGYCLERRLYRVSLACVCVRPRVMG

Kd (mouse IL-25 (NS0)): 0.0073 nM
Kd (Cyno Monkey (HEK)): 0.17 nM
Kd (Mouse (NSO)): 0.168 nM
B6: ABM125 (antibody, V domains shown)
VH: QVTLKVSGPGILQPSQTLSLTCSFSGFSLNTSGMGVGWIRQPSGKGLEWLAHIWWDDVKRYNPALKSRLTISKDTSGSQVFLKIASVDTADTATYYCARTLPHFFDYWGQGTTLTVSS
VL: DIQMTQSPAIMSASPGEKVTISCRASSSVSYMYWYQQKSGSSPKPWIYRTSNLASGVPARFSGSGSGTSYSLTISSMEAEDAATYYCKQYHSYPPTWTFGGGTKLEIKR
modifications: N-glycosylation site in heavy chain CDR1 created by S29N, confirmed biophysically

Kd [2]: 0.0053 nM
Kd [1]: 0.128 nM
B7: ABM125 (Chimera) (antibody, V domains shown)
VH: QVTLKVSGPGILQPSQTLSLTCSFSGFSLNTSGMGVGWIRQPSGKGLEWLAHIWWDDVKRYNPALKSRLTISKDTSGSQVFLKIASVDTADTATYYCARTLPHFFDYWGQGTTLTVSS
VL: DIQMTQSPAIMSASPGEKVTISCRASSSVSYMYWYQQKSGSSPKPWIYRTSNLASGVPARFSGSGSGTSYSLTISSMEAEDAATYYCKQYHSYPPTWTFGGGTKLEIKR
modifications: N-glycosylation site in heavy chain CDR1 created by S29N, confirmed biophysically
